The results in this text go back to paper PMC9482650, “Quantitative fragmentomics allow affinity mapping of interactomes” (Nature Communications, 2022).

Among the targets are AHNAK1, Q09666; DLG1_3, Q12959; DLG2_3, Q15700; HTRA1, Q92743; IL16_3, Q14005; MAGI2_5, Q86UL8; MAST1, Q9Y2H9; NHERF4_2, Q86UT5; NOS1, P29475; PICK1, Q9NRD5; PTPN3, P26045; TJP1_2, Q07157.
Holding throughout (test): holdup assay
What all share (design): key: below the threshold = too weak to quantify, mostly under pKd 3.1 to 4
Holding throughout (details): plain residues with an end cap or a label only (N-terminal biotin on a linker: ado-ado)

The target of another assay is T1, APBA3_1, O96018.
T1 sequence (O96018 389-490, limits assumed, looked up): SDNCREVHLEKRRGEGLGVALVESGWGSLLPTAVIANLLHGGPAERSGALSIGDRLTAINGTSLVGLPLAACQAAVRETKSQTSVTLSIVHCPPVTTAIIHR

The next assay concerns the target T2, ARHGEF11, O15085.
T2 sequence (O15085 42-136, limits assumed, looked up): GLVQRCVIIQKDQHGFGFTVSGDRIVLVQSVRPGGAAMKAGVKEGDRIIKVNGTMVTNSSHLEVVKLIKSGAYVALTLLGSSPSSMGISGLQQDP

The target of another assay is T3, DFNB31_3, Q9P202.
T3 sequence (Q9P202 811-907, limits assumed, looked up): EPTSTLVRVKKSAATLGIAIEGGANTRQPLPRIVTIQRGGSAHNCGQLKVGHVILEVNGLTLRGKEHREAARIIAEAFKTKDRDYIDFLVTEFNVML

In another assay the target is T4, DLG3_1, Q92796.
T4 sequence (Q92796 125-227, limits assumed, looked up): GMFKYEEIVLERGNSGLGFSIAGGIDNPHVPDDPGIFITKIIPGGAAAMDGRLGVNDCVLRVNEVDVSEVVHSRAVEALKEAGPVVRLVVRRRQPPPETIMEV

The target in the next assay is T5, LIN7A, O14910.
T5 sequence (O14910 103-200, limits assumed, looked up): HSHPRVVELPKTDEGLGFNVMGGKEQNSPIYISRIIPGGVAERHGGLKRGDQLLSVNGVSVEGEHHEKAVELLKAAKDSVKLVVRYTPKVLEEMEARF

A further assay addresses T6, LRRC7, Q96NW7.
T6 sequence (Q96NW7 1440-1537, limits assumed, looked up): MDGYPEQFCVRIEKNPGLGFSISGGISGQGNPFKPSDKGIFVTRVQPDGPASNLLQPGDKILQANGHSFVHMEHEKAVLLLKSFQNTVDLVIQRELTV

Another assay concerns the target T7, MPDZ_10, O75970.
T7 sequence (O75970 1624-1722, limits assumed, looked up): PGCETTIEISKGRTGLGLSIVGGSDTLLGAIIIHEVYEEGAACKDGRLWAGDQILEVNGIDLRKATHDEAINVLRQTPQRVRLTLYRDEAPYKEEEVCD

In a further assay the target is T8, MPDZ_12, O75970.
T8 sequence (O75970 1857-1958, limits assumed, looked up): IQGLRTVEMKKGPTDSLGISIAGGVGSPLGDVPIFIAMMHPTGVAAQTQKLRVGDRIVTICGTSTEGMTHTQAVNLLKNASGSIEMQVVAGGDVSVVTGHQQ

The target in the next assay is T9, MPDZ_5, O75970.
T9 sequence (O75970 695-796, limits assumed, looked up): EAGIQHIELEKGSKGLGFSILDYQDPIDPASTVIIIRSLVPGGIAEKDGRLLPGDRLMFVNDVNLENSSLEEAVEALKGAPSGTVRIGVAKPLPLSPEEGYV

Another assay addresses T10, NHERF3_4, Q5T2W1.
T10 sequence (Q5T2W1 373-468, limits assumed, looked up): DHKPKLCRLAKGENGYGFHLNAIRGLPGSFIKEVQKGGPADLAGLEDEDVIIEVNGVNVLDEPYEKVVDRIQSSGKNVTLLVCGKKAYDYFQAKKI

The next assay deals with T11, PDZRN3_1, Q9UPQ7.
T11 sequence (Q9UPQ7 244-349, limits assumed, looked up): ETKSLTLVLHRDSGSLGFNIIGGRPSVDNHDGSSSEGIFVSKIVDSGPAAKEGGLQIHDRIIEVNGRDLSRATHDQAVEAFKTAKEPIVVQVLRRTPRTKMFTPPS

In a further assay the target is T12, TX1BP3, O14907.
T12 sequence (O14907 10-122, limits assumed, looked up): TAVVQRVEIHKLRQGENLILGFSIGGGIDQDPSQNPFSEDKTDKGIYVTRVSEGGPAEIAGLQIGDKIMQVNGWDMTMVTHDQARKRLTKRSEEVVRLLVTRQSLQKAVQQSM

Sequence of HTRA1, Q92743 (Q92743 360-477): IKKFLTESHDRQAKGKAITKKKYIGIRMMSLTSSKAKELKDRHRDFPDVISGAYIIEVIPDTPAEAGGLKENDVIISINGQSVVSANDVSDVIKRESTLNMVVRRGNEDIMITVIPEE
Sequence of TJP1_2, Q07157 (Q07157 181-274): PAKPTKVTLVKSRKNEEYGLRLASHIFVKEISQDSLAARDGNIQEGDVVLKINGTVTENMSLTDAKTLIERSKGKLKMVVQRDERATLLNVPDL
Sequence of PICK1, Q9NRD5 (Q9NRD5 17-115): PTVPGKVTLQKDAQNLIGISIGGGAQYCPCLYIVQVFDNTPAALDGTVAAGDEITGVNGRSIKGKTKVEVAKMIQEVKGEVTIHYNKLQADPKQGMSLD
Sequence of NOS1, P29475 (P29475 9-101): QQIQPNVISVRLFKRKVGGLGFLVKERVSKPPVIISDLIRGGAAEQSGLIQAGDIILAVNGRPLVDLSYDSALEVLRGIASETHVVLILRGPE
Sequence of MAGI2_5, Q86UL8 (Q86UL8 915-1017): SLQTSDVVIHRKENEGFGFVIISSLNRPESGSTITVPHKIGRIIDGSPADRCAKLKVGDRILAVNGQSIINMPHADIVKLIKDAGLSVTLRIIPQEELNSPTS
Sequence of IL16_3, Q14005 (Q14005 1107-1207): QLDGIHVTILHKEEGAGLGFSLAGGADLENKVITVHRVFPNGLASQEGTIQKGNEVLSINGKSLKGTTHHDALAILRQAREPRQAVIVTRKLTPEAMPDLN
Sequence of PTPN3, P26045 (P26045 505-587): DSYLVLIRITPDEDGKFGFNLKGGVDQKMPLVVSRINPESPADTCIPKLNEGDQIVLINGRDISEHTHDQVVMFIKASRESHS
Sequence of NHERF4_2, Q86UT5 (Q86UT5 220-308): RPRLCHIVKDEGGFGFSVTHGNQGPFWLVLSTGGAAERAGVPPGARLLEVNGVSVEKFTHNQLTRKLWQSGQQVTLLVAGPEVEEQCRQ
Sequence of AHNAK1, Q09666 (Q09666 4-100): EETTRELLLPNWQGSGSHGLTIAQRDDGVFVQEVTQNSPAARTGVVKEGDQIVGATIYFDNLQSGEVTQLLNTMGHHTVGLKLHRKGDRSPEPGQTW
Sequence of MAST1, Q9Y2H9 (Q9Y2H9 962-1065): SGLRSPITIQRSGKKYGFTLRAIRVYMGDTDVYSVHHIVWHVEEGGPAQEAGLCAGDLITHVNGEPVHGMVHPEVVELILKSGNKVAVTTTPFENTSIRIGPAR
Sequence of DLG1_3, Q12959 (Q12959 457-571): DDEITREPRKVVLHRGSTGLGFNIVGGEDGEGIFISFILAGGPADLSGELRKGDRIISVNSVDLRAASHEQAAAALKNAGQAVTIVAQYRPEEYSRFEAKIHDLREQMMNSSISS

Consider YAEKRMLTEV [KCNA6, P17658], for which the pKd (commonly the Kd on a negative log10 scale, so that one unit is a factor of ten) is “below the threshold” in the assay with AHNAK1, Q09666; “below the threshold” with APBA3_1, O96018; 5.03 with ARHGEF11, O15085; 4.15 in the assay with DFNB31_3, Q9P202; “below the threshold” with DLG1_3, Q12959; 3.98 with DLG2_3, Q15700. Further, the negative-log Kd (pKd) entry with DLG3_1, Q92796 was “below the threshold”; in the assay with HTRA1, Q92743 it was 3.91; with IL16_3, Q14005, “below the threshold”; with LIN7A, O14910, “below the threshold”; with LRRC7, Q96NW7, “below the threshold”; with MAGI2_5, Q86UL8, 4.28. The pKd in the assay with MAST1, Q9Y2H9 is 4.65; with MPDZ_10, O75970 it was “below the threshold”; in the assay with MPDZ_12, O75970 it was 3.55; with MPDZ_5, O75970 it was “below the threshold”; with NHERF3_4, Q5T2W1 it was “below the threshold”; with NHERF4_2, Q86UT5, “below the threshold”. Moreover, the negative logarithm of the Kd (pKd) result is “below the threshold” with NOS1, P29475; “below the threshold” in the assay with PDZRN3_1, Q9UPQ7; “below the threshold” with PICK1, Q9NRD5; 4.32 in the assay with PTPN3, P26045; “below the threshold” with TJP1_2, Q07157; 4.29 with TX1BP3, O14907.
Take PALKNGQYWV [CSPG4, Q6UVK1]: the pKd result is “below the threshold” with AHNAK1, Q09666; “below the threshold” with APBA3_1, O96018; 3.8 with ARHGEF11, O15085; “below the threshold” with DFNB31_3, Q9P202; “below the threshold” with DLG1_3, Q12959; “below the threshold” in the assay with DLG2_3, Q15700. Further, the pKd entry was “below the threshold” with DLG3_1, Q92796; 5.1 in the assay with HTRA1, Q92743; “below the threshold” in the assay with IL16_3, Q14005; “below the threshold” with LIN7A, O14910; 3.7 in the assay with LRRC7, Q96NW7; “below the threshold” with MAGI2_5, Q86UL8. The pKd entry with MAST1, Q9Y2H9 is “below the threshold”; in the assay with MPDZ_10, O75970, “below the threshold”; in the assay with MPDZ_12, O75970, 3.61; in the assay with MPDZ_5, O75970, 4.2; in the assay with NHERF3_4, Q5T2W1, “below the threshold”; with NHERF4_2, Q86UT5, “below the threshold”. Besides, the pKd with NOS1, P29475 was 4.09; with PDZRN3_1, Q9UPQ7, “below the threshold”; with PICK1, Q9NRD5 it was “below the threshold”; in the assay with PTPN3, P26045, 4.1; with TJP1_2, Q07157 it was 4.69; in the assay with TX1BP3, O14907, 4.19.
As to FLVTEFNVML [DFNB31, Q9P202], the pKd result is “below the threshold” in the assay with AHNAK1, Q09666; “below the threshold” in the assay with APBA3_1, O96018; 3.95 with ARHGEF11, O15085; “below the threshold” in the assay with DFNB31_3, Q9P202; “below the threshold” with DLG1_3, Q12959; “below the threshold” with DLG2_3, Q15700. Also, the negative-log Kd (pKd) entry in the assay with DLG3_1, Q92796 was “below the threshold”; with HTRA1, Q92743, 4.4; with IL16_3, Q14005, “below the threshold”; with LIN7A, O14910 it was “below the threshold”; in the assay with LRRC7, Q96NW7, 3.64; with MAGI2_5, Q86UL8, “below the threshold”. The pKd with MAST1, Q9Y2H9 was 3.89; with MPDZ_10, O75970 it was “below the threshold”; in the assay with MPDZ_12, O75970, “below the threshold”; with MPDZ_5, O75970, “below the threshold”; in the assay with NHERF3_4, Q5T2W1, 4.55; in the assay with NHERF4_2, Q86UT5 it was “below the threshold”. Besides, the negative-log Kd (pKd) entry was “below the threshold” in the assay with NOS1, P29475; “below the threshold” with PDZRN3_1, Q9UPQ7; “below the threshold” with PICK1, Q9NRD5; 3.89 in the assay with PTPN3, P26045; “below the threshold” in the assay with TJP1_2, Q07157; 3.96 with TX1BP3, O14907.
With WAKEKQHTRL [SLC17A1, Q14916], the pKd entry was “below the threshold” with AHNAK1, Q09666; “below the threshold” in the assay with APBA3_1, O96018; 4.25 in the assay with ARHGEF11, O15085; “below the threshold” with DFNB31_3, Q9P202; “below the threshold” in the assay with DLG1_3, Q12959; “below the threshold” in the assay with DLG2_3, Q15700. For the same molecule, the pKd result with DLG3_1, Q92796 is “below the threshold”; with HTRA1, Q92743, “below the threshold”; in the assay with IL16_3, Q14005, “below the threshold”; in the assay with LIN7A, O14910, “below the threshold”; with LRRC7, Q96NW7, “below the threshold”; with MAGI2_5, Q86UL8, “below the threshold”. The pKd with MAST1, Q9Y2H9 was 4.89; with MPDZ_10, O75970, “below the threshold”; with MPDZ_12, O75970 it was “below the threshold”; in the assay with MPDZ_5, O75970, “below the threshold”; in the assay with NHERF3_4, Q5T2W1, 4.11; with NHERF4_2, Q86UT5, “below the threshold”. For the same molecule, the pKd with NOS1, P29475 is 3.71; with PDZRN3_1, Q9UPQ7, 3.79; with PICK1, Q9NRD5, “below the threshold”; with PTPN3, P26045, 3.85; in the assay with TJP1_2, Q07157, “below the threshold”; with TX1BP3, O14907, “below the threshold”.
